# Values of other authors in paper PMC2737186.
# Biological target: Cys1 (UniProt position 252, VVKNKCLAEGT)
substance,measurement,value
"Mtu RecA intein (form studied by Shingledecker, Jiang and Paulus 2000) (Mycobacterium tuberculosis)",pKa,8.2
